Data: paper PMC11347149
pKd: −log10 of the molar value.

Legend:
[1] = target: T1, His6C-CoxC (LytTR DNA-binding domain) (Afipia carboxidovorans OM5) (UniProt Q9KX27); assay: EMSA; details: EMSA: 20 mM Tris-HCl pH 7.5, 50 mM KCl, 2 mM beta-mercaptoethanol, 10% glycerol, 250 ug/ml BSA, 50 ug/ml salmon sperm DNA, 1 mM DTT, 1 mM dithionite, 2 ng …
T1 sequence: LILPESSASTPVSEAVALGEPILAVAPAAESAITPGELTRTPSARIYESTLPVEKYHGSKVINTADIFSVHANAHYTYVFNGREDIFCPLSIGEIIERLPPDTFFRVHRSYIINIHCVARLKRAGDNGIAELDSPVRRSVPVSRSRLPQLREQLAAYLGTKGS

[2] = tested on: His6C-CoxC (LytTR DNA-binding domain) (Afipia carboxidovorans OM5); assay: EMSA; details: EMSA: 20 mM Tris-HCl pH 7.5, 50 mM KCl, 2 mM beta-mercaptoethanol, 10% glycerol, 250 ug/ml BSA, 50 ug/ml salmon sperm DNA, 1 mM DTT, 1 mM dithionite, 2 ng …

Substance | pKd [1] | binding [1] | pKd [2]
AATTCCAGTTCATGCGTATGTTACCGCCGTTGGTGGAATTTGGAAGTCGTTTGGGCAAAAGCCTTTGATGCTGCTTTGCGGCAACTTCTATCGTGCCCCACGAACGTCGCATCATAAGAAATGTGACGCCCGGGGGGGACAACGCAAATGGGTTGCGAAAATATGCAGGCGCGGCAAGCACCGTGTCGCCAAGCTAGGCATTTGGCTCAAACTGTCCCCTCGAAGCTCTCTTCAACTGCTGCAAAGCATCGACCGCATTTTCGCGGACGATATTGGGATCCCG (double strand) [PcoxB] | 7.60 | binds | –
PcoxB | – | – | 7.60
